# Data reported in patent publication US20030017502A1, “Methods involving the use of capG as a diagnostic marker and methods for the identification of capG modulators for the treatment and prevention of osteoporosis and related disease states” (priority 2001, published 2003).
# B1: RANKL: ligand recognized by receptor activator of NF-κB (RANK), leads to osteoclast differentiation (protein, UniProt O14788 140-317, looked up)
# Tumor necrosis factor ligand …: IRAEKAMVDGSWLDLAKRSKLEAQPFAHLTINATDIPSGSHKVSLSSWYHDRGWAKISNMTFSNGKLIVNQDGFYYLYANICFRHHETSGDLATEYLQLMVYVTKTSIKIPSSHTLMKGGSTKYWSGNSEFHFYSINVGGFFKLRSGEEISIEVSNPSLLDPDQDATYFGAFKVRDID
# Test system: capG phosphorylation in RAW 264 cells
# Assay: two-dimensional anti-phosphotyrosine Western blot of RAW 264 cell lysates with and without RANKL stimulation and inhibitor pretreatment
# Type: cell-based, murine
# Settings: RAW 264 cells stimulated with RANKL versus unstimulated control
# Procedure: RAW 264 cells were obtained from Bristol Myers Squibb Department of Metabolic Diseases. The cells were grown in minimal essential media supplemented with 5% fetal bovine serum and 1% nonessential amino acids. For assay purposes, RAW 264 cells were starved for 5 hours in serum free media and then cultured in media containing 2% fetal bovine serum and RANK ligand. When inhibitors were used, as set forth below, the cells were pre-exposed to the inhibitor for one hour prior to RANKL stimulation. To identify RANKL specific tyrosine phosphorylation, RAW264 cells were treated with RANKL in the presence and absence of PP1 [4-Amino-5-(4-methylphenyl)-7-(t-butyl)pyrazolo[3,4-d]pyrimidine], a specific inhibitor of pp60src and wortmannin, a specific inhibitor of PI3kinase (Lakkakorpi, P. T. et al., “Phosphatidylinositol 3-kinase association with the osteoclast cytoskeleton, and its involvement in osteoclast attachment and spreading”. Exp. Cell Res. 237(2):296-306 (1997)), and cell lysates evaluated by proteomic analysis. Cell lysates were separated by two-dimensional electrophoresis in duplicate and transferred to PVDF membranes. […] 35(6):672-682 (2000), for subsequent proteomic analysis with the corresponding membrane analyzed by western blotting using anti-phosphotyrosine antibody. […] Maximal fluorescence incorporation occurred within 4 hours. […]
molecule,measurement,value
B1,capG phosphorylation on stimulation,causes capG 102 phosphorylation
